Source: patent publication US6319890A, “Inhibition of binding of complement Factor H” (priority 1996, dated 2001)

What was measured:
[1] = biological target: T1, binding of peptide A to HIV-derived target peptides #SA2, #12, #18 (Human immunodeficiency virus type 1 group M subtype B, UniProt P03377); experiment: Competition of the binding of biotin-labelled peptide A to HIV-derived peptides
T1 construct: His Glu Asp Ile Ile Ser Leu Trp Asp Gln Ser Leu Lys Pro Cys, Env; 105-119; Ile Asn Asn Thr Tyr THr Ser, Env; 621-645; Leu Asp Lys Trp Ala Ser, Env; 650-673; made in house; host or cells: chemical synthesis (synthetic peptides)
T1 sequence (P03377 621-645, other chains not shown): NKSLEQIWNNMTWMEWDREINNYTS
Source text: This interaction was competed by peptide A itself, by the envelope peptides #SA2 Sequence I.D. #20, #12 Sequence I.D. #22 and #18 Sequence I.D. #21 but not by peptide #53 Sequence I.D. […]. Therefore, the three HIV-derived peptides seem to share functional homology with respect to the interaction with CFH since they all bind to the same region on SEQ. ID NO: 1.

CFH = CFH (Homo sapiens, UniProt P08603); conditions: described in earlier publications of Pinter et al.; cited from earlier work
Sequence of CFH (P08603 19-1231): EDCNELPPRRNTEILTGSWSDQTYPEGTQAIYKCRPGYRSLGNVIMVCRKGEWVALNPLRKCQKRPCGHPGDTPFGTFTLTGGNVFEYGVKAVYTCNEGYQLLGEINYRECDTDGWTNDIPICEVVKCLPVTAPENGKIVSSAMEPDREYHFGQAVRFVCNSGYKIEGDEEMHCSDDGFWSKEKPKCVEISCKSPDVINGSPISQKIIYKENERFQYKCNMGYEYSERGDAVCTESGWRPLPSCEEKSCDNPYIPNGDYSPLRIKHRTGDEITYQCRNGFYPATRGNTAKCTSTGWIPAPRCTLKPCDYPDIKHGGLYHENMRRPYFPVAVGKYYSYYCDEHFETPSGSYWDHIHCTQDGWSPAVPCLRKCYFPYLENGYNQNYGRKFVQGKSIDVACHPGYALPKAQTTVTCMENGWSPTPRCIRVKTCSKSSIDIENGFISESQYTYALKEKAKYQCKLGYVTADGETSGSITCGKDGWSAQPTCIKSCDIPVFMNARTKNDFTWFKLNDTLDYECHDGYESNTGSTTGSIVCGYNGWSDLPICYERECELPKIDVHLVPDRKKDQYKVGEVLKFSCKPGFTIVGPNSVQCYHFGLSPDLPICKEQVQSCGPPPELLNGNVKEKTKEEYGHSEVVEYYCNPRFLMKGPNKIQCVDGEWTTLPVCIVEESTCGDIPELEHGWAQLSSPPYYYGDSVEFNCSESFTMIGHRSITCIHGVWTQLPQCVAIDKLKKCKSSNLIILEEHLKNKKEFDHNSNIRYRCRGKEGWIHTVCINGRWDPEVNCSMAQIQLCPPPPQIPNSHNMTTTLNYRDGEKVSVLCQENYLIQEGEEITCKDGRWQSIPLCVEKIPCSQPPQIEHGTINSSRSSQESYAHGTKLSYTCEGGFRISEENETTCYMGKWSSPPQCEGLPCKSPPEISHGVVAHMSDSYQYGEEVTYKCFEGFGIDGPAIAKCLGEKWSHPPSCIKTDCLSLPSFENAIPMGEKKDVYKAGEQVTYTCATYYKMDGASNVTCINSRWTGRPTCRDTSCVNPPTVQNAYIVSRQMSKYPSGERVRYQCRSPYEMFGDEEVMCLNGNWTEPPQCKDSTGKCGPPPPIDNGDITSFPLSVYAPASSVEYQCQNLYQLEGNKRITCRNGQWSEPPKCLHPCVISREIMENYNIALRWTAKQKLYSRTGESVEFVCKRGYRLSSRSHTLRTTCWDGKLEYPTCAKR

[2] = biological target: T2, binding of CFH to the HIV envelope peptides #SA2 (gp120), #18 and #12 (gp41) (Human immunodeficiency virus type 1 group M subtype B, UniProt P03377); conditions: previous work, Pinter et al., AIDS Research & Human Retroviruses 11:577; cited from earlier work
T2 construct: His Glu Asp Ile Ile Ser Leu Trp Asp Gln Ser Leu Lys Pro Cys, Env; 105-119; Ile Asn Asn Thr Tyr THr Ser, Env; 621-645; Leu Asp Lys Trp Ala Ser, Env; 650-673; made in house; host or cells: Env peptides: chemical synthesis; CFH: purified from normal human plasma (or fresh plasma used as the CFH source)

[3] = biological target: T2, binding of CFH to the HIV envelope peptides #SA2 (gp120), #18 and #12 (gp41); conditions: target peptides preincubated with competitor, washed, before CFH
Method: Synthetic peptides and recombinant proteins were dissolved in Carbonate-bicarbonate buffer, 50 mM, pH 9.2 at 50 μg/ml (micrograms per milliliter) and 10 μg/ml, respectively, distributed in 100 μl aliquots into flat-bottomed 96-well ELISA plates (Greiner, Germany) and left at 37° C. for 3 hours. The plates were then washed three times in phosphate-buffered saline (PBS) and the wells were overcoated with a 3% (w/v) solution of bovine serum albumin (BSA) in PBS. The CFH source (either from fresh plasma or from plasma subjected to subsequent purification steps), was diluted to the appropriate concentration (1 mg/ml) in PBS-BT (=PBS containing 1% BSA and 1% Tween 20), pH 7.0 and exposed to the solid phase for one hour at 37° C. After washing in PBS+1% Tween 20 (=PBS-T), bound CFH was detected by the use of specific, biotin-labelled MAb 5H5, Pinter et al., AIDS Research & Human Retroviruses 11: 971, and peroxidase-labelled streptavidin (Sigma, Italy). The reaction was developed with o-phenylene-diamine/H2 O2 for fifteen minutes and then stopped by the addition of 4N H2 SO4. Absorbance was detected at […] with a MT450 microplate reader (BioRad).
Along with the above-described assay, a preincubation assay was also conducted with peptides. […] The solid phases were washed in PBS-T and CFH was detected with the biotin-labelled MAb 5H5 as previously described.

[4] = biological target: T2, binding of CFH to the HIV envelope peptides #SA2 (gp120), #18 and #12 (gp41); conditions: competitor added simultaneously with CFH; ELISA, solid-phase peptides #SA2, #18, #12
[5] = biological target: T3, gp120-derived peptide #SA2 (Env. 105-119) (Human Immunodeficiency Virus); experiment: competition ELISA against CFH binding to the immobilised envelope peptide
T3 peptide: HEDIISLWDQSLKPC

[6] = biological target: T4, gp41-derived peptide #18 (Env. 621-645) (Human Immunodeficiency Virus); experiment: as above
T4 peptide: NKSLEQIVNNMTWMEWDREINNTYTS

[7] = biological target: T5, gp41-derived peptide #12 (Env. 650-673) (Human Immunodeficiency Virus); experiment: as above
T5 peptide: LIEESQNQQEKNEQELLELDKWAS

[8] = biological target: T3, gp120-derived peptide #SA2 (Env. …); experiment: competition ELISA against CFH; inhibition due to interaction of peptide A with the solid phase (preincubation gave the same effect)
[9] = biological target: T4, gp41-derived peptide #18 (Env. 621-645); experiment: as above
[10] = biological target: T5, gp41-derived peptide #12 (Env. 650-673); experiment: as above

Asn Lys Ser Leu Glu Gln Ile Val Asn Asn Met Thr Trp Met Glu Trp Asp Arg Glu Ile Asn Asn Thr Tyr THr Ser (NKSLEQIVNNMTWMEWDREINNTYTS) [#18, gp41-derived HIV envelope peptide, Env; 621-645]
competition of the binding of biotin-labelled peptide A to HIV-derived peptides [1]: competed
CFH binding to the HIV envelope peptide (CFH): targets of CFH binding

Heparin
inhibition of the binding of CFH to HIV and to the target peptides [2]: inhibited
competition with the binding of CFH to the HIV envelope peptides after preincubation [3]: inactive
competition with the binding of CFH to the HIV envelope peptides [4]: competed

B1: peptide b11 (peptide)
peptide: KEFDHNSNIRYRCR
binding result [5]: binds
binding result [6]: binds
binding result [7]: binds

B2: Peptide A (peptide)
peptide: AIDKLKKCKSSNLIILEEHLKNKKEFDHNS
binding result [8]: binds
binding result [9]: binds
binding result [10]: binds

B3: Peptide B (peptide)
peptide: IRYRCRGKEGWIHTVCINGRWDPEVNCS
binding result [5]: no binding (tested: 0 to 50 µg/ml)
binding result [6]: no binding (tested: 0 to 50 µg/ml)
binding result [7]: no binding (tested: 0 to 50 µg/ml)
